According to US20210395390A1:
Positions count from the first letter of the chain named.

B1: TPP-8243 (antibody, human IgG1, lambda, V domains shown)
VH: EVQLLESGGGLVQPGGSLRLSCAASGFTFSNYGIHWVRQAPGKGLEWVSAIGTGGDTYYADSVMGRFTISRDNSKNTLYLQMNSLRAEDTAVYYCARDRGYYDILTGLYDYWGQGTLVTVSS
VL: QSVLTQPPSASGTPGQRVTISCSGSSSNIGNNAVNWYQQLPGTAPKLLIYGNYHRPSGVPDRFSGSKSGTSASLAISGLRSEDEADYYCSSYAGSNNWVFGGGTKLTVLG
B2: TPP-8236 (antibody, human IgG1, lambda, V domains shown)
VH: EVQLLESGGGLVQPGGSLRLSCAASGFTFSDYYMNWVRQAPGKGLEWVSTISGTGAAAFYADSVRGRFTISRDNSKNTLYLQMNSLRAEDTAVYYCARDQYLTGGAFDIWGQGTLVTVSS
VL: QSVLTQPPSASGTPGQRVTISCSGSSSNIGNNAVNWYQQLPGTAPKLLIYGNSNRPSGVPDRFSGSKSGTSASLAISGLRSEDEADYYCSSYRGSSTLVVFGGGTKLTVLG
B3: TPP-8240 (antibody, human IgG1, lambda, V domains shown)
VH: EVQLLESGGGLVQPGGSLRLSCAASGFTFSSYAMSWVRQAPGKGLEWVAVISYDGSNKHYADSVKGRFTISRDNSKNTLYLQMNSLRAEDTAVYYCARDSMVRGKIFDYWGQGTLVTVSS
VL: QSVLTQPPSASGTPGQRVTISCSGSSSNIGNNAVNWYQQLPGTAPKLLIYEDNKRPSGVPDRFSGSKSGTSASLAISGLRSEDEADYYCMIWHSSAWVFGGGTKLTVLG
B4: TPP-8246 (antibody, human IgG1, lambda, V domains shown)
VH: EVQLLESGGGLVQPGGSLRLSCAASGFTFSSYSMNWVRQAPGKGLEWVSTISGSGGITHYADSVKGRFTISRDNSKNTLYLQMNSLRAEDTAVYYCARDRGNRVAARPAFDYWGQGTLVTVSS
VL: QSVLTQPPSASGTPGQRVTISCTESSSNTGAGYDVHWYQQLPGTAPKLLIYGNTNRPSGVPDRFSGSKSGTSASLAISGLRSEDEADYYCASWDDNLGGWVFGGGTKLTVLG
B5: TPP-8238 (antibody, human IgG1, lambda, V domains shown)
VH: EVQLLESGGGLVQPGGSLRLSCAASGFTFSSYSMNWVRQAPGKGLEWVASISGSGANTYFADTVKGRFTISRDNSKNTLYLQMNSLRAEDTAMYYCARHGQVRLNYGSPTTVYNWFDRWGQGTLVTVSS
VL: B4 VL with E24G, T29I, T54S, S92A, D94H, N96S, G98N

Assays:
[1] = target: anti-FXIa antibody 076D-M007-H04-CDRL3-N110D; experiment: cell-based or functional assay
[2] = target: anti-FXIa antibody 076D-M007-H04-CDRL3-N110D; experiment: ELISA, 076D-M007-H04-CDRL3-N110D coated at 1 µg/ml, anti-human lambda light chain-peroxidase detection

Row | Binder | Neutralizing activity, IC50 (biochemical FXIa assay) [1] | aPTT 1.5 X [1] | aPTT 1.5 X (EC150) [1] | biochemical FXIa assay IC 50 [1] | plasma based FXIa assay, IC50 [1] | plasma based assay IC 50 [1] | EC50 [2] | Neutralizing activity (biochemical FXIa assay) (% inhibition at 1.00E-06 M) [1]
1 | B1 | 1.13 nM | 0.3 µM | 0.3 µM | 1.1 nM | 5 nM | 5 nM | 0.256 nM | 
2 | B2 | > 1000 nM |  |  |  |  |  | 0.484 nM | 
3 | B3 | > 1000 nM |  |  |  |  |  | 0.216 nM | 
4 | B4 | > 1000 nM |  |  |  |  |  | 0.477 nM | 
5 | B5 |  |  |  |  |  |  | 0.485 nM | 75
